Tests used:
[1] = target: human 4-1BB, full-length, on cells (human) (UniProt Q07011); experiment: flow cytometry on human 4-1BB-expressing CHO-K1 cells, PE goat anti-human IgG Fc, MFI
[2] = target: cynomolgus 4-1BB extracellular domain, His tag (cynomolgus) (UniProt A9YYE7); experiment: SPR, Biacore T200; antibody captured on Protein G chip, cynomolgus 4-1BB ECD.His as analyte
Chain of cynomolgus 4-1BB extracellular domain, His tag (cynomolgus) (A9YYE7 entry or part of it): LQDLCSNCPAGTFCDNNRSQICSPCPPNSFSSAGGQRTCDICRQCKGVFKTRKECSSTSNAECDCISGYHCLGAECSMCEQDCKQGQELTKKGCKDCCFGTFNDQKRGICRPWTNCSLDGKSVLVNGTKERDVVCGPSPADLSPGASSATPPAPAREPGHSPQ

Chain of human 4-1BB, full-length, on cells (human) (Q07011 24-255 limits assumed): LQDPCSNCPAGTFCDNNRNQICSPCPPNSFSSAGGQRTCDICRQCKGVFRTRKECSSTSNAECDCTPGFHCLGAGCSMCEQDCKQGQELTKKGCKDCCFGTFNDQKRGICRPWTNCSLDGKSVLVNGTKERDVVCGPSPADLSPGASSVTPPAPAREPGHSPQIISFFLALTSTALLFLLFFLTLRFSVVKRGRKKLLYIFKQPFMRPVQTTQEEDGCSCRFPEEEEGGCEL
Chain of BMK4.hIgG2L(Pfizer) (antibody) (VH): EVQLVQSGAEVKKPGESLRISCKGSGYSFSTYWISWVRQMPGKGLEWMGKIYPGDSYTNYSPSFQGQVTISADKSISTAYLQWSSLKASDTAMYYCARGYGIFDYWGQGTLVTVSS
Chain of BMK4.hIgG2L(Pfizer) (antibody) (VL): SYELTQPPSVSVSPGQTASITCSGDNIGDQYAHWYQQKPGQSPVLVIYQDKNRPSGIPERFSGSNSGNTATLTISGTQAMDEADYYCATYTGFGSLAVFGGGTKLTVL

Substance | EC50 (read off the curve) [1] | Kd [2]
WBP342-BMK3.hIgG4 (antibody) | 0.2 nM | –
BMK4.hIgG2L(Pfizer) (antibody) | – | 16 nM

Source: patent publication US20210230287A1
